From the supplement of paper PMC10724198
± gives the standard deviation of the averaged measurements.

Test system: Saccharomyces cerevisiae
Assay: protein stability index of tFT-peptide fusion (C-terminal peptide) (PSI (0-1 scale)); higher = more stable (slower turnover)
Conditions: genetic background: wild type; temperature: 30 C
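Further: PSI is a weighted mean of sequencing reads over stability bins, variants kept only with over 10 reads, mCherry proximal and sfGFP distal, peptide attached via GGGS linker.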

Sequence | protein stability index
LGGLYGTAMSCT | 0.683 ± 0.023
LGGRWVLGVRGV | 0.694 ± 0.029
LGGSNRPCVRSI | 0.697 ± 0.011
LGGSVAIWSWNP | 0.763 ± 0.12
LGGWAGLRCGGF | 0.704 ± 0.026
LGILVFRGASFL | 0.7351 ± 0.007
LGLCQVLFSFRV | 0.56816 ± 0.00044
LGLEALRETSQP | 0.6448 ± 0.005
LGLSDPERLFVI | 0.664 ± 0.025
LGMEPPWIYSCQ | 0.6851 ± 0.0019
LGRGGGGPLSGG | 0.717 ± 0.041
LGRLFPTSLPPR | 0.739 ± 0.17
LGRLGAFITQPA | 0.671 ± 0.059
LGRMCSRITVGV | 0.543 ± 0.026
LGRPLLYALFFP | 0.724 ± 0.048
LGRRGLSMCGCV | 0.634 ± 0.018
LGRVLSFGHAFV | 0.698 ± 0.021
LGSASRQLARPR | 0.66 ± 0.12
LGSVVADGPHKL | 0.625 ± 0.0097
LGVAMSKCLEFR | 0.684 ± 0.0083
LGVFVAFGGFGV | 0.605 ± 0.048
LGVGGRGVVPGA | 0.7 ± 0.031
LGWGWVWSWGRG | 0.728 ± 0.052
LHISYPVPPLRM | 0.633 ± 0.11
LHNQTLLLSEDD | 0.652 ± 0.037
LIALLETRTWRT | 0.676 ± 0.015

Sequence | protein stability index
LIAVASSGWKQS | 0.7145 ± 0.0023
LICQNPVADPRT | 0.711 ± 0.042
LIFKLQLPSPWL | 0.643 ± 0.042
LIHGRFWVIRVD | 0.616 ± 0.0092
LIKSEECKNTDI | 0.704 ± 0.033
LILLLTPPVIHH | 0.743 ± 0.051
LIRLLPPPPAVF | 0.487 ± 0.068
LISHHSEFPVIL | 0.744 ± 0.031
LISNIFSFEWLW | 0.622 ± 0.032
LKDITVWRPKRG | 0.658 ± 0.12
LKHHDSNESASR | 0.651 ± 0.1
LKKMIGPLRAGE | 0.686 ± 0.076
LKLHDSNESASR | 0.651 ± 0.03
LKLTFFCRQNIF | 0.574 ± 0.0098
LKNIRYGIIKKE | 0.68 ± 0.0085
LKRKKKHQMKRR | 0.699 ± 0.028
LKSGRYSYFGSL | 0.734 ± 0.086
LLAAVSPSHRAL | 0.724 ± 0.021
LLAPSPPPPLPP | 0.61 ± 0.13
LLAYFCRRGVRH | 0.7232 ± 0.0071
LLCSLRPLAVPP | 0.602 ± 0.039
LLDLCSNLLRSF | 0.757 ± 0.11
LLEKGHTRGLCF | 0.663 ± 0.017
LLFCMGSCGPVR | 0.624 ± 0.027
LLFVVSLPSFPC | 0.636 ± 0.13
LLGFRLACTSGA | 0.648 ± 0.0079

Sequence | protein stability index
LLGRWVAGSRGG | 0.746 ± 0.017
LLHAGVCSVSFL | 0.718 ± 0.038
LLLPPAPPPPLS | 0.621 ± 0.095
LLLVGGVSSWTV | 0.67 ± 0.014
LLLVRNCQDSRQ | 0.69 ± 0.057
LLPFLPPPPCPP | 0.72 ± 0.022
LLPFTLHIPLRP | 0.6523 ± 0.0022
LLPGLVGMLSCM | 0.602 ± 0.039
LLPGPYPLLSDN | 0.732 ± 0.025
LLPLAPVCVIIL | 0.54 ± 0.041
LLPLPCPPFPHS | 0.674 ± 0.024
LLPPPHHANHTA | 0.6915 ± 0.0027
LLPRLRHPSRGK | 0.73 ± 0.15
LLPSPISRNRAL | 0.696 ± 0.0081
LLPSPLHGCTMS | 0.676 ± 0.01
LLPSPPPPTSLP | 0.728 ± 0.033
LLPVLGFPLPFD | 0.75 ± 0.065
LLRVLPPPPLPL | 0.712 ± 0.11
LLRVTVCELAYK | 0.55 ± 0.018
LLSFLPPVFLLL | 0.514 ± 0.014
LLSGPTLSCVPT | 0.617 ± 0.043
LLSLHPRYPCTP | 0.76 ± 0.047
LLSLLPFGCLLL | 0.536 ± 0.031
LLSRLLLAPSSL | 0.65 ± 0.019
LLSSATPSKFPS | 0.836 ± 0.021
LLSTPPIVSPPA | 0.6987 ± 0.0031

Sequence | protein stability index
LLSVPCPLVCRL | 0.699 ± 0.037
LLSYLRNCCAEH | 0.687 ± 0.035
LLTFSSCALPYR | 0.676 ± 0.092
LLTGKTVPKDST | 0.705 ± 0.016
LLWGSSPDGGQG | 0.694 ± 0.019
LLYLFMSSRFLW | 0.6369 ± 0.003
LMCSSGGGCSCG | 0.706 ± 0.023
LNGRYGGFGHRC | 0.7009 ± 0.007
LNLLCGFRQVGG | 0.701 ± 0.013
LNNLTVVDVAGL | 0.69 ± 0.017
LNTETNVVLLEG | 0.671 ± 0.035
LNTVRKSKDKAI | 0.706 ± 0.19
LNVVSRLLACGL | 0.642 ± 0.022
LPAARQSVLPPA | 0.732 ± 0.0085
LPASPPLSGLIF | 0.823 ± 0.14
LPCFPSLNRNPL | 0.7397 ± 0.0015
LPCPSPPPSPLS | 0.675 ± 0.06
LPCVSTCCSCLL | 0.706 ± 0.011
LPDSHHQTMGVF | 0.711 ± 0.055
LPGCGSYLSGNV | 0.651 ± 0.056
LPKTSPRSRRER | 0.6868 ± 0.0053
LPLIPTSSRRHS | 0.682 ± 0.024
LPLLSSLLALLY | 0.647 ± 0.042
LPLPHAPPPPPT | 0.7233 ± 0.0026
LPLPPALPSPSL | 0.658 ± 0.027
LPLPPPCSRVLF | 0.644 ± 0.074

Sequence | protein stability index
LPLPPPPLLPAP | 0.732 ± 0.057
LPLPPPPPCCSF | 0.701 ± 0.015
LPMGGMFVARSI | 0.653 ± 0.059
LPPDSLRPPGPP | 0.761 ± 0.017
LPPFPLPPPLLS | 0.68 ± 0.1
LPPGDPPPRGPP | 0.597 ± 0.045
LPPHAPIPRWKP | 0.776 ± 0.17
LPPHPPSPPFLP | 0.588 ± 0.023
LPPPFPWSPSGP | 0.698 ± 0.066
LPPPLLPTPMAP | 0.661 ± 0.09
LPPPPRPRSLLS | 0.693 ± 0.047
LPPPPSPLPPRP | 0.627 ± 0.048
LPPPRPLPIPSP | 0.711 ± 0.047
LPPRLPLSLDVL | 0.675 ± 0.086
LPPTPTLPLVPP | 0.7153 ± 0.0053
LPRASPKARTLR | 0.714 ± 0.075
LPRASQFLLPVP | 0.651 ± 0.065
LPRFTPPLPPPL | 0.734 ± 0.0096
LPRNQPVPFPCH | 0.677 ± 0.0094
LPRPPPFSPPPP | 0.651 ± 0.11
LPRREQILRKGS | 0.71 ± 0.023
LPRSRLAPPPCS | 0.73 ± 0.015
LPSARLPPPPPR | 0.683 ± 0.021
LPSEAPSLLAPP | 0.663 ± 0.084
LPSHAPRRPTFP | 0.7403 ± 0.0056
LPSLLPESGLCF | 0.604 ± 0.0086

Sequence | protein stability index
LPSPPPSSPLPP | 0.56 ± 0.048
LPSPYPPPRPLP | 0.711 ± 0.034
LPSQRPWLAQSI | 0.717 ± 0.01
LPSSAVDLYTRP | 0.6468 ± 0.0059
LPSSPFPPLPVT | 0.6889 ± 0.0042
LPSTQSPPPPLP | 0.705 ± 0.077
LPTASLLPPPPP | 0.626 ± 0.078
LPTKPVPIPRHY | 0.693 ± 0.052
LPTPSQYFFPPP | 0.736 ± 0.018
LPTPSSSYLYPA | 0.611 ± 0.017
LPTPTPPPALRS | 0.689 ± 0.053
LPTYPPTLPVPS | 0.638 ± 0.04
LPVPFFPPCPFR | 0.732 ± 0.012
LPYHSSPPSSSP | 0.702 ± 0.046
LQAKRTAGPGEH | 0.68423 ± 0.00012
LQIFRSRCFGGL | 0.722 ± 0.13
LQKRKQMRKIKE | 0.646 ± 0.019
LRALLSHPRRCA | 0.625 ± 0.034
LRAPPPPAQPFV | 0.694 ± 0.012
LRFELCLCIEPA | 0.53 ± 0.059
LRFIIPSDLSFV | 0.696 ± 0.03
LRFVTAGEFEMK | 0.635 ± 0.061
LRGIGVSWWKGL | 0.583 ± 0.023
LRGLLWFSRVGS | 0.618 ± 0.011
LRGNDRLLSKRI | 0.694 ± 0.022
LRGSDYIVIGGS | 0.656 ± 0.025

Sequence | protein stability index
LRGVDYEQMSDP | 0.667 ± 0.11
LRHLLAPPPRPP | 0.649 ± 0.016
LRHLPHPTCSLL | 0.7 ± 0.06
LRKTNQKIRSFK | 0.614 ± 0.037
LRLLPRIVSPSV | 0.6 ± 0.022
LRLLSFFITSFL | 0.64 ± 0.13
LRPFSPSPPRPF | 0.705 ± 0.013
LRPLSPPTLLPA | 0.664 ± 0.022
LRPPPAAHSLGP | 0.645 ± 0.012
LRQWRRERAIII | 0.601 ± 0.042
LRRLSSIGWSRI | 0.754 ± 0.14
LRSLSLSYVALR | 0.6592 ± 0.0017
LRSVNVLAALFS | 0.686 ± 0.043
LRVNFPLHDPHP | 0.65 ± 0.049
LRVSPVALPSSW | 0.81 ± 0.13
LSADVNRRLGLS | 0.674 ± 0.035
LSAFLLLMPRLP | 0.659 ± 0.01
LSALPLTRPLAR | 0.709 ± 0.043
LSALSLFLFFLR | 0.58 ± 0.046
LSAPLPPLSAPP | 0.667 ± 0.0099
LSAQNNTGIVKT | 0.623 ± 0.0084
LSATGSCSPRRG | 0.693 ± 0.014
LSCLIPLPAPPL | 0.662 ± 0.052
LSCRLDGIVIWF | 0.64 ± 0.051
LSFLAPGPPPAR | 0.735 ± 0.039
LSGRQKLNMSIR | 0.682 ± 0.029

Sequence | protein stability index
LSHAQIDPEFTE | 0.697 ± 0.042
LSHIPDRQRLKP | 0.715 ± 0.062
LSHPPPPPSSAT | 0.716 ± 0.027
LSHSSPLFSPLV | 0.72 ± 0.0077
LSIGDLTIEKKL | 0.686 ± 0.022
LSISPSPPPPLW | 0.706 ± 0.052
LSKSPRPARCSA | 0.6091 ± 0.0024
LSLGGSPSKRRP | 0.648 ± 0.029
LSLPPHASPTPS | 0.735 ± 0.055
LSLTRIFQLTRW | 0.721 ± 0.023
LSPAPPHRYSPY | 0.7 ± 0.043
LSPASPGPFLSC | 0.72 ± 0.022
LSPCVGGLFGVV | 0.693 ± 0.017
LSPFCIRSLRPD | 0.647 ± 0.069
LSPPAPPLLFSP | 0.691 ± 0.035
LSPPPHTSVPRL | 0.659 ± 0.12
LSPPYCPGALTL | 0.646 ± 0.0081
LSPVSPRPLLPV | 0.773 ± 0.12
LSPYFWITEDAS | 0.7028 ± 0.0051
LSRPCPFYPPPR | 0.701 ± 0.037
